Measurements reported in patent publication US7192733B2, “Methods and means for modulating PGE synthase activity” (Karolinska Innovations AB, priority 1998, dated 2007).

How the values were obtained:
[1] = tested on: 180 kDa protein from sheep seminal vesicles (PGE synthase activity); settings: larger (180 kDa) protein; read-out: Km for PGH2; cited from earlier work
[2] = tested on: 17.5 kDa protein from sheep seminal vesicles (PGE synthase activity); settings: read-out: Km for PGH2; cited from earlier work
human PGE synthase = biological target: T1, human PGE synthase (Homo sapiens, UniProt O14684); test: PGE synthase enzyme assay (inhibition of PGE2 formation from PGH2); format: biochemical; settings: 1 mM for 5 min prior to incubation; membrane fraction from bacteria expressing PGE synthase
T1 construct: made in house; host or cells: E. coli BL21 (DE3) pLysSL, vector pSP19T7LT; membrane fraction
T1 sequence (O14684 1-152): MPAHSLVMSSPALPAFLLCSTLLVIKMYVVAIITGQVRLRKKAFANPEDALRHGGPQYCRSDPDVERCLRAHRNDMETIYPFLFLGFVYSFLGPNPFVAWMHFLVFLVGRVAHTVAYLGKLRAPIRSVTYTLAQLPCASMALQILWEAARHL
Method: (§1) The protein sample was diluted in potassium inorganic phosphate buffer (0.1 M, pH=7.4) containing 2.5 mM reduced glutathione. The reaction (total volume=100 μl) was started by the addition of 10 μM PGH2 with or without 0.1 μCi 3H PGH2 and terminated with 60 μl acetonitrile/HCl, lowering the pH to 3.2. In order to determine the formation of either PGF2α, PGE2 or PGD2, an aliquot (60 μl) was analyzed by reverse-phase-HPLC combined with UV detection (195 nm) and/or radioactivity detection using an online β-RAM detector (Inus System, Inc.). The reverse-phase HPLC column was Nova-Pak C18 (3.9×150 mm, 4 μm particle size) obtained from Waters. The mobile phase was water, acetonitrile and trifluoroacetic acid (70:30:0.007, by vol) with a flow rate of 1 ml/min.
(§2) For analysis of 12-HHT, a mobile phase of methanol, water and acetic acid (70:30:0,01, by vol) was used and UV detection at 236 nm. The amounts of produced PGE2 and 12-HHT were quantified by integration of the areas under the eluted peaks at 195 and 236 nm, respectively.
(§3) The membrane fraction (0.02 mg total protein/ml) isolated from bacteria expressing PGE synthase was incubated for 2 min in the presence of PGH2 (10 μM including 1 μCi 3H PGH2) and reduced glutathione (2.5 mM).

[3] = tested on: PGE synthase expression in A549 cells; test: Induction of PGE synthase protein in A549 cells, Western blot; format: cell-based, human; settings: 1 ng/ml, 24 h
Method: Samples were diluted and boiled for two min in SDS-containing sample buffer (Laemmli, U. K. (1970) Nature 227, 680–5). Proteins were separated through 14% polyacrylamide gels (Novex) and electroblotted (Towbin, H., et al.(1979) PNAS USA 76, 4350–4) onto PVDF (Pall) membranes. Transfer efficiency was visualized using pre-stained standards (Novex). Membranes were then soaked for 1 h at 25° C. in Tris-buffered saline (100 mM Tris-HCl, pH=7.5, 150 mM NaCl) containing 0.1% (v/v) Tween and 5% (w/v) non-fat dried milk. The membrane was subsequently washed twice in 0.1% T-TBS followed by 1 h incubation at 25° C. with the indicated antiserum (1:2000 dilution) in 0.05% (v/v) T-TBS and 2% (w/v) non-fat dried milk. […]
In order to investigate whether or not PGE synthase may also be regulated by this cytokine, A549 cells were cultured for 24 h in the presence of 1 ng/ml IL-1β. Normal cells as well as cells treated with IL-1β were subsequently analyzed for PGE synthase expression by SDS-PAGE followed by Western blotting.
Total protein corresponding to 0.2×10^6 cells grown for 24 h in the presence (1 ng/ml) or absence of IL-1β was fractionated by SDS-PAGE and transferred to PVDF membrane. […] Also analyzed was the commercial available, partly purified, PGE synthase from sheep seminal vesicles (6 μg) as well as the membrane fraction from bacteria expressing human PGE synthase (5 μg).

PGH2 = test: PGE synthase activity of fractions from cells expressing recombinant protein (PGH2 to PGE2, RP-HPLC); format: biochemical; settings: for PGE synthase activity: membrane fraction or microsomes of cells expressing the control protein
Method: as §1, §2, §3
In this experiment the various dilutions of the membrane fraction obtained from bacteria expressing PGE synthase were incubated in the presence of PGH2 (10 μM) and GSH (2.5 mM) for 2 min. The PGE2 formation was analyzed and quantified by RP-HPLC and UV detection at 195 nm as described in Materials and Methods above.
The membrane fraction obtained from bacteria expressing PGE synthase (0.02 mg/ml) was incubated with PGH2 for the indicated times in the presence (filled circles) or absence (open circles) of glutathione. Filled triangles represent non-enzymatic (buffer only) PGE2 formation after incubation with PGH2. The product formation was analyzed by RP-HPLC and PGE2 was detected and quantified using UV absorbance at 195 nm.

## CCCCC[C@H](O)/C=C/[C@@H]1[C@@H](C/C=C\CCCC(=O)O)[C@@H]2C[C@H]1OO2 (relative stereo) [PGH2, 15(S)-hydroxy-9α, 11α-peroxidoprosta-5-cis-13-trans-dienoic acid]
[1]
  Km: 150 µM
[2]
  Km: 40 µM

## CCN1C(=O)C=CC1=O [N-ethylmaleimide]
Human PGE synthase
  enzyme activity after treatment of the membrane fraction: abolished

## IL-1β: proinflammatory cytokine interleukin-1β
[3]
  PGE synthase protein expression: induced

## MGST2: microsomal glutathione S-transferase 2 expressed in Sf9 cells, microsomes [reference compound]
PGH2
  PGE synthase activity: no PGE synthase activity

B1: ratMGST1: rat microsomal glutathione S-transferase 1 expressed in bacteria, control membrane fraction (protein, UniProt P08011 2-155, looked up)
Microsomal glutathione …: ADLKQLMDNEVLMAFTSYATIILAKMMFLSSATAFQRLTNKVFANPEDCAGFGKGENAKKFLRTDEKVERVRRAHLNDLENIVPFLGIGLLYSLSGPDLSTALIHFRIFVGARIYHTIAYLTPLPQPNRGLAFFVGYGVTLSMAYRLLRSRLYL
PGH2
  PGE synthase activity: no PGE synthase activity

B2: PGE synthase: human PGE synthase (SEQ ID NO: 2) expressed in E. coli, tested as bacterial membrane fraction (protein, listed as Homo sapiens)
chain: MPAHSLVMSSPALPAFLLCSTLLVIKMYVVAIITGQVRLRKKAFANPEDALRHGGPQYCRSDPDVERCLRAHRNDMETIYPFLFLGFVYSFLGPNPFVAWMHFLVFLVGRVAHTVAYLGKLRAPIRSVTYTLAQLPCASMALQILWEAARHL
PGH2; bacterial membrane fraction, PGH2, reduced glutathione
  glutathione dependent PGE synthase activity: 0.25 µmol/min/mg
PGH2; estimating that 1% of the bacterial membrane protein is MGST1-L1
  deduced specific activity: 25 µmol/min/mg
PGH2; membrane fraction 0.02 mg/ml, PGH2 10 μM, GSH 2.5 mM
  specific activity under linear conditions (subtracting background formation): 250 nmol/min/mg
